Test results from US20160289299A1.

Tests used:
[1] = test system: ^superFVa (recombinant super factor five, thrombin-activated)
[2] = biological target: recombinant human wild-type FVa (UniProt P12259)
[3] = biological target: ^superFVa (recombinant super factor five, thrombin-activated) (human) (UniProt P12259); assay: cell-based or functional assay
[4] = biological target: recombinant human wild-type FVa (UniProt P12259); assay: cell-based or functional assay

^superFVa (recombinant super factor five, thrombin-activated), sequence (chain, as listed by the source): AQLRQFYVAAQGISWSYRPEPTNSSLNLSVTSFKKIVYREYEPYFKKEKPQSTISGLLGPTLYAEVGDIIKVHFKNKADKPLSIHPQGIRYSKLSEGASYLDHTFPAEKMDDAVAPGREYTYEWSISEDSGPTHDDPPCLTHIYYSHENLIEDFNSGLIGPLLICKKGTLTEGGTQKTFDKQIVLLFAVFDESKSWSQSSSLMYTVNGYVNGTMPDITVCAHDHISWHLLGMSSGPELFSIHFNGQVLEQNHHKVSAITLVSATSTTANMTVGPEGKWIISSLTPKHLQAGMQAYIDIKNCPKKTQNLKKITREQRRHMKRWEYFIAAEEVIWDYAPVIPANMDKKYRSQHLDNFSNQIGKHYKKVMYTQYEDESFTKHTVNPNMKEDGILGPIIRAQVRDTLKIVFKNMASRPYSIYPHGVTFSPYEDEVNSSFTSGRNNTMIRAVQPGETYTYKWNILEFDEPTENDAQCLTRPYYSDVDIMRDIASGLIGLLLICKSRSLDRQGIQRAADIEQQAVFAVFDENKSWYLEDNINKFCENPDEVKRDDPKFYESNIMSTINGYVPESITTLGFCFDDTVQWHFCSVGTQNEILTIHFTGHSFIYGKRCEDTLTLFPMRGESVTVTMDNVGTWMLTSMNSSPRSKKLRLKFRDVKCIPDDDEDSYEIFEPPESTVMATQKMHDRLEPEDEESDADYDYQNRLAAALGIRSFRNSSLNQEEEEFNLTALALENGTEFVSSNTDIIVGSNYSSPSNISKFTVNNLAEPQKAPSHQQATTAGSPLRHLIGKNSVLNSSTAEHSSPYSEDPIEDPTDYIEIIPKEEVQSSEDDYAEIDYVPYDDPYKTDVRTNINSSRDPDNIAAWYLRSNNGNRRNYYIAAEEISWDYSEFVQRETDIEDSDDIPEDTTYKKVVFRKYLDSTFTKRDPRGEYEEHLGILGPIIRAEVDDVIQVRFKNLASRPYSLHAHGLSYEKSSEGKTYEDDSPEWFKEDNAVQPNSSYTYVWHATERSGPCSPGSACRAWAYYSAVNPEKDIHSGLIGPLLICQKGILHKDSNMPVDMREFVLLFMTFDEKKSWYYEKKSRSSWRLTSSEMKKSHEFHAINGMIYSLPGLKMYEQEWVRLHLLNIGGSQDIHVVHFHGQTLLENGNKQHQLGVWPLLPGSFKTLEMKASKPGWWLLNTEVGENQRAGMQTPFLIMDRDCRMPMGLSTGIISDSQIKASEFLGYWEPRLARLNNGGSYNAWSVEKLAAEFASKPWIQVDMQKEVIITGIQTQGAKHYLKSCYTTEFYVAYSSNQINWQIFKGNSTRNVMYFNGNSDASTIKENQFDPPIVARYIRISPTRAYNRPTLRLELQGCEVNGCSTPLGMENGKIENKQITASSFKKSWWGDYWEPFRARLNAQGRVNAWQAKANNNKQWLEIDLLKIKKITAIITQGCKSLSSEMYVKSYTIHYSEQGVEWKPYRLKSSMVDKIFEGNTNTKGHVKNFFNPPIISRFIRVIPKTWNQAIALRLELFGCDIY

Substance	ETP restored in human or murine plasma in the presence of APC [1]	aPTT in human plasma with APC at 0.05 U/mL FVa variant [1]	aPTT in murine plasma with human APC at 5 U/mL FVa variant [1]	aPTT normalisation in human plasma with 10 nM APC, concentration relative to FVa [1]	ETP restored in human or murine plasma in the presence of APC [2]	aPTT in human plasma with APC at 0.05 U/mL FVa variant [2]	aPTT in murine plasma with human APC at 5 U/mL FVa variant [2]	ex vivo whole blood aPTT after intravenous APC (0.5 mg/kg) in Balb/c mice [3] [s]	ex vivo whole blood aPTT after intravenous APC (0.5 mg/kg) in Balb/c mice [4] [s]
recombinant human Activated Protein C (Xigris)	Only ^superFVa restored ETP to ˜90-100% in human or murine plasma at concentrations where FVa did not show effects	At 0.05 U/mL FVa variants, ^superFVa fully corrected the aPTT	At 5 U/mL FVa variants ^superFVa fully corrected the aPTT	in human plasma ^superFVa normalized the aPTT at 100-fold lower concentrations compared to FVa	at concentrations where FVa did not show effects	FVa shortened the aPTT only from ˜100 to 80 seconds	FVa shortened the aPTT only from ˜100 to 70 seconds		
recombinant murine Activated Protein C (from UniProt P33587 42-460) (enzyme)								30	50
